Measured values taken from patent publication US9797889B2, “Activation of bioluminescence by structural complementation” (Promega Corporation, priority 2013, dated 2017).

Key:
[1] = target: wild-type non-luminescent polypeptide (Oplophorus gracilirostris, UniProt Q9GV45, A31E/A60N/A81I/F95D/I117V/K70R/L54V/L99Q/M102K/P142E/Q151K/Q38R/Q45L/V71I/Y165I); assay: NLpep mutant luminescence with wild-type NLpoly lysate (Examples 7, 8, 12, 13); settings: mutations based on alignment to fatty acid binding proteins
Chain of wild-type non-luminescent polypeptide (Q9GV45 other isoform, or with tags, fused parts or gaps with the stated changes): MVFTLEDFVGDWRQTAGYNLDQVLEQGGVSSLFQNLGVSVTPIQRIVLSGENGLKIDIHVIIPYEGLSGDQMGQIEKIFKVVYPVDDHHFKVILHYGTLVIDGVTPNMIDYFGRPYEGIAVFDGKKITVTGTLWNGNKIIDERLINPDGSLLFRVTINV

[2] = target: 5P (Oplophorus gracilirostris, UniProt Q9GV45, A31E/A60N/A81I/D135N/F95D/G42A/G62A/G78A/G94A/G98A/I117V/K70R/L176M/L54V/L99Q/M102K/N171T/P142E/Q151K/Q38E/Q45L/V71I/Y165I); assay: Titration of 5P with NLpep88-HT (Example 47); type: biochemical; settings: lower concentrations of NLpep88
Chain of 5P (Q9GV45 other isoform, or with tags, fused parts or gaps with the stated changes): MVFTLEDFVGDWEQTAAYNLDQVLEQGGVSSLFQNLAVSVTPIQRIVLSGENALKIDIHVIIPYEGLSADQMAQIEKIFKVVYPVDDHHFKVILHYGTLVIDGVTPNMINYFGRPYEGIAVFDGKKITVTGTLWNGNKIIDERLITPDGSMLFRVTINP

[3] = target: 11S (Oplophorus gracilirostris, UniProt Q9GV45, A31E/A60N/A81I/D135N/F58L/F95D/G42A/G62A/G78A/G94A/G98A/H120P/I103V/I117V/I134L/K70R/L176M/L54V/L73R/L99Q/M102E/N171T/P142E/Q151K/Q38E/Q45L/V71I/Y165I); assay: Substrate effect on 11S/NLpep79 Kd (Example 55); type: binding; settings: saturating (50 uM) vs sub-saturating (5 uM) furimazine
[4] = test system: NLpep79; assay: Substrate specificity of NLpoly 5P and 11S with NLpep79 (Example 97); type: biochemical; settings: with NLpep79, 11S compared with 5P
Method: E. coli clarified lysates were prepared for NLpoly 5P or 11S as described previously. The NLpoly lysates were then serially diluted in steps of 10-fold into PBS+0.1% Prionex.

[5] = test system: NLpep78-HT or NLpep79-HT; assay: NLpoly variant luminescence without NLpep, with NLpep78-HT or NLpep79-HT (Examples 62, 93); type: biochemical; settings: E. coli expression culture
Method: Single NLpoly variant colonies were inoculated with 200 uL minimal media and grown for 20 hrs at 37° C. on a shaker. 10 uL of the overnight culture were diluted into 190 uL fresh minimal media and grown for 20 hrs at 37° C. on a shaker. 10 uL of this overnight culture was then diluted into 190 uL auto-induction media (previously described) and grown for 18 hrs at 25° C. on a shaker. 10 uL of this expression culture was mixed with 40 uL of assay lysis buffer (previously described) without NLpep or NLpep78-HT (1:3,860 dilution) or NLpep79-HT (1:10,000 dilution) and shaken for 10 min at RT. 50 uL of NanoGlo+Fz was added and again shake for 10 min at RT. Luminescence was measured on GloMax® luminometer with 0.5 sec integration. FIGS. 105-107 illustrate the luminescence of various NLpolys in the absence of NLpep.
A single colony of various NLpolys were inoculated individually into 200 uL minimal media and grown for 20 hrs at 37° C. on shaker. […] 10 uL of this overnight culture was diluted into 190 uL auto-induction media (previously described) and grow for 18 hrs at 25° C. on shaker. 10 uL of the expression culture was mixed with 40 uL of assay lysis buffer (previously described) without NLpep or with NLpep78-HT (1:3,860 dilution) or NLpep79-HT (1:10,000 dilution).

[6] = Luminescence of NLpoly without NLpep (Example 57); type: biochemical; settings: E. coli clarified lysate, NanoGlo+Fz
Method: 50 uL of each lysate and 50 uL NanoGlo+Fz were mixed and incubated for 5 min RT. Luminescence was measured on GloMax® Multi+ with 0.5 sec integration.

[7] = target: T1, […] (Oplophorus gracilirostris, UniProt Q9GV45); assay: Luminescence of non-luminescent polypeptide mutants upon complementation (Example 5, Table 4); settings: complementation with peptide […]; induced E. coli culture, NANOGLO reagent
[8] = target: T1, […]; assay: as above; settings: complementation with peptide […]; induced E. coli culture, NANOGLO reagent; remark: listed apart in the source

Question: For DVTGWRLCERILA [NLpep2], which “activity (luminescence) of single-mutation NLpep with wild-type NLpoly” value (“activity (luminescence)” below) [1] is on record?
Answer: The value was “retains/improves activity”.

Question: With GVTAWRLCERILA [NLpep3] as the molecule, how does the “activity (luminescence)” value [1] read?
Answer: The value was “not likely to be tolerated”.

Question: Which “activity (luminescence)” value [1] does the source give for GVTGWRLCERISA [NLpep5] here?
Answer: The value was “retains/improves activity”.

Question: For GVTGWRLCKRILA [NLpep4], which “activity (luminescence)” value [1] is on record?
Answer: The value was “retains/improves activity”.

Question: For NVSGWGLFKKISN [NLpep88], which “luminescence of 5P titrated with NLpep88-HT” value [2] is on record?
Answer: The value was “no increase in luminescence above 5P alone”.

Question: With NVTGYRLFKKISN [NLpep79] as the molecule, how does the “affinity between 11S and NLpep79” value [3] read?
Answer: The value was “increase the affinity”.

B1: 11S: NLpoly variant 11S (12S-51) (protein)
chain: MVFTLEDFVGDWEQTAAYNLDQVLEQGGVSSLLQNLAVSVTPIQRIVRSGENALKIDIHVIIPYEGLSADQMAQIEEVFKVVYPVDDHHFKVILPYGTLVIDGVTPNMLNYFGRPYEGIAVFDGKKITVTGTLWNGNKIIDERLITPDGSMLFRVTINS
Question: Which “substrate specificity for furimazine” value [4] does the source give for B1 here?
Answer: The value was “superior specificity for furimazine than 5P”.

Question: And the “luminescence of NLpoly variant without NLpep or with NLpep78 or NLpep79” value [5]?
Answer: The value was “improved luminescence over the other variants”.

Question: What about the “luminescence in the absence of NLpep relative to WT NLpoly” value [6] of the same molecule?
Answer: The value was about 500 fold.

B2: L149M (protein)
chain: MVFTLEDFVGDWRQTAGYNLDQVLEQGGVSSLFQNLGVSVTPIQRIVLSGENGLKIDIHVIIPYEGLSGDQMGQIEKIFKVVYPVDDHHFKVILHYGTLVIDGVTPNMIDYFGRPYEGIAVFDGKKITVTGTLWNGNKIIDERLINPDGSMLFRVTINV
Question: With B2 as the molecule, how does the “luminescence relative to wild-type, RLU(mutant)/RLU(WT)” value [7] read?
Answer: Its value is 2.16 RLU(mutant)/RLU(WT).

Question: What about the “luminescence relative to wild-type, RLU(mutant)/RLU(WT)” value [8] of the same molecule?
Answer: Its value is 2.89 RLU(mutant)/RLU(WT).
